# According to US20230151106A1, “OFATUMUMAB FOR TREATING MS WHILE MAINTAINING SERUM IgG” (NOVARTIS AG, priority 2020, published 2023):
# Entries after “also recorded” stand apart in the source; their conditions may differ. Where two headings read alike, the source gives them in different places.
# Legend:
# CD19+ B-cells = assay: CD19+ B-cell depletion in ASCLEPIOS; format: in vivo, human
# Protocol: ASCLEPIOS I and II are double-blind, double-dummy, active comparator-controlled, parallel-group, innovative, adaptive design, multicentre trials. Patients were randomised (1:1) to receive either ofatumumab 20 mg sc injections every 4 weeks (after an initial loading regimen of 20 mg sc doses on Days 1, 7 and 14) or teriflunomide 14 mg orally once daily, for up to 30 months. […] Patients aged 18-55 years with an Expanded Disability Status Scale (EDSS) score (according to Kurtzke, Neurology. 1983, Nov; 33(11): 1444-52) of 0-5.5 at screening who experienced ≥1 relapse in the past year or ≥2 relapses in the past 2 years or a positive gadolinium-enhancing (Gd+) MRI scan during the year before randomisation were included.
# serum IgM = assay: Serum IgM levels in ASCLEPIOS I/II (Pool C2); format: in vivo, human
# Protocol: In the present application serum Ig levels can preferably be determined by immunoturbidimetry. Preferably a Roche cobas® Analyzer was used, especially module c of the cobas® analyser.
# (§3) Serum samples were preferably kept at 2-8° C. before measurement.
# ASCLEPIOS I and II are double-blind, double-dummy, active comparator-controlled, parallel-group, innovative, adaptive design, multicentre trials. Patients were randomised (1:1) to receive either ofatumumab 20 mg sc injections every 4 weeks (after an initial loading regimen of 20 mg sc doses on Days 1, 7 and 14) or teriflunomide 14 mg orally once daily, for up to 30 months.
# B cells = assay: B-cell repletion after study treatment discontinuation (Pool C2, OMS115102); format: in vivo, human; settings: study OMS115102, approximately 48 weeks post study
# IgG levels = assay: Metanalysis of Example 1 versus Derfuss et al. (pooled OPERA), IgG levels; format: in vivo, human
# Excerpt: In a metanalysis, the results of Example 1 and the results obtained by Derfuss et al. were compared.
# CD20 receptor on B-cells = assay: Nonclinical ADCC activity comparison; format: cell-based; settings: ofatumumab compared to ocrelizumab and rituximab
# CD20 receptor = molecular target: T1, CD20 receptor (Homo sapiens, UniProt P11836); assay: B-cell binding studies, off-rate; settings: in comparison to rituximab
# T1 construct: endogenous in cells
# T1 sequence (P11836 1-297): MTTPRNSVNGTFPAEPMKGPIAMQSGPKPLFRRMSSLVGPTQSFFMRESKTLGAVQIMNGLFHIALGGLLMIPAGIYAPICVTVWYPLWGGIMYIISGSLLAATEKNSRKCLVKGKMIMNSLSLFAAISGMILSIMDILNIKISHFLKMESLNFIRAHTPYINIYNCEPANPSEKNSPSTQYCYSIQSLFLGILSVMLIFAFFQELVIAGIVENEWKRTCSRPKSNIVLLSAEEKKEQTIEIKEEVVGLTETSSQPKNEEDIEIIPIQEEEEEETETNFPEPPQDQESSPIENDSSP
# IgG = assay: Long term study (Example 5), IgG levels; format: in vivo, human; settings: OMB long-term group, FIG. 14
# Excerpt: (§1) 2”, preferably version 13.0 dated 2018-11.
# (§2) Patients were subjected to a long term treatment.
# IgM = assay: Long term study (Example 5), IgM levels; format: in vivo, human; settings: OMB long-term group, FIGS. 16 and 17
# Excerpt: as §1, §2
# serum IgG [1] = settings: in vivo
# Protocol: (§4) In the present application serum Ig levels can preferably be determined by immunoturbidimetry. Preferably a Roche cobas® Analyzer was used, especially module c of the cobas® analyser. In a preferred embodiment Ig levels can be determined by using a cobas® c 311 analyzer. It is further preferred that IgG measurements are carried out as described in the cobas® leaflet “IGG-2 Tina-quant IgG Gen. 2”, preferably version 11.0 dated 2016-02 and IgM measurements as described in the leaflet “IGM-2 Tina-quant IgM Gen. 2”, preferably version 13.0 dated 2018-11.
# as §3
# (§5) Patients were randomised (1:1) to receive either ofatumumab 20 mg sc injections every 4 weeks (after an initial loading regimen of 20 mg sc doses on Days 1, 7 and 14) or teriflunomide 14 mg orally once daily, for up to 30 months.
# (§6) Serum IgG/IgM levels were monitored at baseline, Week (W) 4, W12 and every 12 weeks, see FIG. 1.
# [2] = system: multiple sclerosis patients; settings: in vivo
# Excerpt: as §6
# MS patients [3] = settings: human, in vivo
# MS patients [4] = settings: cited from earlier work
# COVID-19 = settings: for COVID-19 symptoms duration / Outcome: serious case
# Protocol: Confirmed or suspected cases of COVID-19 infection in patients receiving ofatumumab in the open-label extension study ALITHIOS were reviewed (data cutoff: Dec. 21, 2020)
# COVID-19 cases were classified as confirmed if SARS-CoV2 positive test results were available, or patient was reported to be diagnosed with COVID-19
# Suspected cases of COVID-19 were classified as suspected if without a positive SARS-CoV2 test or definitive diagnosis
# The following COVID-19 case characteristics were assessed:
# *Serious criteria is based on the regulatory reporting definition established by ICH, for the purposes of regulatory reporting obligations, and consists of fatal, life-threatening, hospitalization and medically significant
# [5] = in vivo, sc, 20 mg
# serum IgG [6] = assay: Serum IgG levels in ASCLEPIOS I/II (Pool C2)
# Protocol: as §4, §3, §5, §6
# [7] = system: multiple sclerosis patients; assay: Infections in relation to IgM/IgG levels <LLN vs >=LLN in ofatumumab MS studies
# Excerpt: as §6
# MS patients [8] = assay: General safety in MS clinical trials with ofatumumab (neutrophils, PML, hepatitis B, malignancy, cytopenia); settings: human, in vivo
substance,measurement,setting,value
ofatumumab: recombinant human monoclonal immunoglobulin G1 (IgG1) antibody that binds to human CD20,patients with CD19+ B-cells below LLN,CD19+ B-cells; Week 1,77.0%
same,"patients with CD19+ B-cells below LLN, n/M",CD19+ B-cells; Week 1,338/439
same,patients with CD19+ B-cells below LLN,"CD19+ B-cells; Week 1, listed as OMB",(77.0) %
same,patients with CD19+ B-cells below LLN,CD19+ B-cells; Week 2,95.0%
same,"patients with CD19+ B-cells below LLN, n/M",CD19+ B-cells; Week 2,420/442
same,patients with CD19+ B-cells below LLN,"CD19+ B-cells; Week 2, listed as OMB",(95.0) %
same,patients with CD19+ B-cells below LLN,CD19+ B-cells; Week 4,(97.8) %
same,"patients with CD19+ B-cells below LLN, n/M",CD19+ B-cells; Week 4,440/450
same,patients with CD19+ B-cells below LLN,CD19+ B-cells; Week 12,99.3%
same,"patients with CD19+ B-cells below LLN, n/M",CD19+ B-cells; Week 12,440/443
same,patients with CD19+ B-cells below LLN,"CD19+ B-cells; Week 12, listed as OMB",(99.3) %
same,patients with CD19+ B-cells below LLN,CD19+ B-cells; Week 24,(98.4) %
same,"patients with CD19+ B-cells below LLN, n/M",CD19+ B-cells; Week 24,422/429
same,patients with CD19+ B-cells below LLN,CD19+ B-cells; Week 36,(98.8) %
same,"patients with CD19+ B-cells below LLN, n/M",CD19+ B-cells; Week 36,415/420
same,patients with CD19+ B-cells below LLN,CD19+ B-cells; Week 48,(98.3) %
same,"patients with CD19+ B-cells below LLN, n/M",CD19+ B-cells; Week 48,397/404
same,patients with CD19+ B-cells below LLN,CD19+ B-cells; Week 60,(96.7) %
same,"patients with CD19+ B-cells below LLN, n/M",CD19+ B-cells; Week 60,385/398
same,patients with CD19+ B-cells below LLN,CD19+ B-cells; Week 72,(98.2) %
same,"patients with CD19+ B-cells below LLN, n/M",CD19+ B-cells; Week 72,379/386
same,patients with CD19+ B-cells below LLN,CD19+ B-cells; Week 84,(98.9) %
same,"patients with CD19+ B-cells below LLN, n/M",CD19+ B-cells; Week 84,260/263
same,patients with CD19+ B-cells below LLN,CD19+ B-cells; Week 96,(99.4) %
same,"patients with CD19+ B-cells below LLN, n/M",CD19+ B-cells; Week 96,161/162
same,patients with CD19+ B-cells below LLN,CD19+ B-cells; Week 108,(97.9) %
same,"patients with CD19+ B-cells below LLN, n/M",CD19+ B-cells; Week 108,93/95
same,patients with CD19+ B-cells below LLN,CD19+ B-cells; Week 120,(100) %
same,"patients with CD19+ B-cells below LLN, n/M",CD19+ B-cells; Week 120,28/28
same,median CD19+ B-cell count,CD19+ B-cells; from Week 2 onwards,zero
same,patients in whom CD19+ B-cell depletion was maintained,CD19+ B-cells; throughout the treatment period,> 96%
same,IgM decline with treatment,serum IgM; MS studies,some level of IgM decline but the majority of the patients remained above LLN
same,change in mean IgM,"serum IgM; Week 96 completers, Pool C2",-0.537 g/L
same,decline in mean IgM,"serum IgM; Week 96 completers, Pool C2",38.8%
same,proportion of patients with IgM levels below LLN and 10% below the LLN versus teriflunomide,"serum IgM; any time post baseline and at Week 96, FIG. 8",higher proportion
same,patients with IgM levels on or above the LLN,"serum IgM; any time post-baseline, FIG. 9",82-89%
same,change in mean IgM value,"serum IgM; baseline to Week 48, Pool C2",-0.420 g/L
same,decrease in mean IgM value,"serum IgM; baseline to Week 48, Pool C2",30.9%
same,mean serum IgM levels versus reference range,"serum IgM; over time, reference range 0.40-2.30 g/L",remained well within the reference ranges
same,B-cell repletion,B cells,"B cells for all subjects were repleted, with the exception of one subject"
same,increase of IgG levels,IgG levels; after two years (96 weeks),about 3%
same,effect on IgG levels on the long term,IgG levels; in vivo,sustains and even increases IgG levels
same,ADCC activity,CD20 receptor on B-cells,No relevant difference
same,off-rate (dissociation rate of the antibody from the CD20 receptor),CD20 receptor,lower off-rate
same,IgG levels over long-term follow-up,IgG,stable over the long-term follow-up of >4 years
same,IgM levels with longer duration,IgM,levels remained above the lower limit of normal
same,"patients with IgG below LLN, n/N",serum IgG [1],134/944
same,Infections observed after the first drop of IgG<LLN,[2],45.5%
same,"Infections observed after the first drop of IgG<LLN, number of patients",[2],61
same,Number of patients with at least 1 infection AE by Grade: Grade 4,[2],0 n
same,infection AE by outcome: Recovered/resolved,[2],0 n
same,infection AE by outcome: Recovered/resolved with sequelae,[2],0 n
same,infection AE by outcome: Recovering/resolving,[2],0 n
same,patients who received immunoglobulin substitution therapy for decrease in IgG/M,[2],none of the patients
same,patients who reported an infection post study drug discontinuation,[2],six of 32
same,serious opportunistic infections,[2],no cases
same,cases of PML or Hepatitis B reactivation or serious potential OI,MS patients [3],no cases
same,incidence of malignancy,MS patients [3],no increased incidence
same,mean and median values of neutrophil count,MS patients [3],remained within the normal ranges
same,risk of neutropenia,MS patients [3],No risk of neutropenia
same,suppression of gadolinium (Gd) T1 lesions when compared to Aubagio,MS patients [4]; ASCLEPIOS I/II,highly significant suppression
same,annualized relapse rate (ARR),MS patients [4]; ASCLEPIOS I,0.11
same,reduction in annualized relapse rate (ARR) compared to Aubagio (teriflunomide),MS patients [4]; ASCLEPIOS I,50.5%
same,annualized relapse rate (ARR),MS patients [4]; ASCLEPIOS II,0.10
same,reduction in annualized relapse rate (ARR) compared to Aubagio (teriflunomide),MS patients [4]; ASCLEPIOS II,58.5%
same,relative risk reduction in 3-month confirmed disability progression (CDP) versus Aubagio,MS patients [4]; pre-specified pooled analyses,34.4%
same,relative risk reduction in 6-month CDP versus Aubagio,MS patients [4]; pre-specified pooled analyses,32.5%
same,COVID-19 outcome: Ongoing,COVID-19; Non-serious (n = 29),0
same,COVID-19 outcome: Recovered,COVID-19; Non-serious (n = 29),29
same,COVID-19 outcome: Recovering,COVID-19; Non-serious (n = 29),0
same,COVID-19 outcome: Recovered,COVID-19; Serious (n = 6),5
same,cases with no change in ofatumumab treatment required,COVID-19; confirmed COVID-19 infection,21 cases
same,cases with treatment temporarily interrupted due to confirmed COVID-19 infection,"COVID-19; human, in vivo",5 cases
same,cases with complete recovery,COVID-19; of 35 confirmed cases,34 cases
same,"confirmed COVID-19 cases, Non-serious",COVID-19; of 35 confirmed cases,Non-serious (n = 29)
same,COVID-19 symptoms duration,COVID-19; Patient ID 5409018,~50 days
same,Outcome,COVID-19; Patient ID 5409018,Complete
same,COVID-19 symptoms duration,COVID-19; Patient ID 5608014,18 days
same,Outcome,COVID-19; Patient ID 5608014,Complete
same,COVID-19 symptoms duration,COVID-19; Patient ID 5800004,~30 days
same,Outcome,COVID-19; Patient ID 5800004,Fatal
same,COVID-19 symptoms duration,COVID-19; Patient ID 5800043,11 days
same,Outcome,COVID-19; Patient ID 5800043,Complete
same,COVID-19 symptoms duration,COVID-19; Patient ID 5801015,15 days
same,Outcome,COVID-19; Patient ID 5801015,Complete
same,COVID-19 symptoms duration,COVID-19; Patient ID 5806001,10 days
same,Outcome,COVID-19; Patient ID 5806001,Complete
same,half-life at steady state,[5],approximately 16 days
same,recovery of IgG levels after reduction until Week 36,"serum IgG [6]; ASCLEPIOS I and II, FIG. 7",recovered up to baseline levels by W72
same,change in mean serum IgG value from baseline,serum IgG [6]; Week 96,+0.249 g/L
same,patients with IgG levels 20% below the LLN,serum IgG [6]; Week 96 (Week-96 completers),no ofatumumab patients
same,increase in mean serum IgG value from baseline,"serum IgG [6]; Week 96, ASCLEPIOS studies",2.2%
same,proportion of patients with IgG levels below the LLN versus teriflunomide,"serum IgG [6]; any time post-baseline, FIG. 8",lower proportion
same,patients with IgG levels on or above the LLN,"serum IgG [6]; any time post-baseline, FIG. 9",> 85%
same,proportion of patients with IgG below LLN,serum IgG [6]; anytime during post baseline visit,14.2%
same,turning point at which the trend of decreasing IgG levels reverses,serum IgG [6]; in vivo,36 week
same,mean serum IgG over time compared to baseline,serum IgG [6]; over 96 weeks treatment,no decrease in mean values; also recorded: No decrease in mean serum IgG
same,decrease of IgG levels,serum IgG [6]; week 72 and thereafter,no decrease
same,Number of patients with at least 1 infection AE by Grade: Grade 4,"[7]; IgG <LLN, N = 134",0 n
same,infection AE by outcome: Fatal,"[7]; IgG <LLN, N = 134",0 n
same,infection AE by outcome: Fatal,"[7]; IgM <LLN, N = 167",0 n
same,infection AE by outcome: Fatal,"[7]; IgM ≥LLN, N = 777",0 n
same,cytopenia during therapy,MS patients [8],No cytopenia
